The target in the experiment is PDF-2180 RBD-hFc (PDF-2180). Nature of the experiment: BLI. (In general: Biolayer interferometry detects binding as a change in optical thickness at a sensor tip.)

B1: ACE2 from Pipistrellus pipistrellus (Ppip ACE2) (receptor)
chain: TTEEEARDFLDKFNSEAENLSHESALASWDYNTNITDENAQKMNEADSKWSDFYKEQSKRAQAFPLQEIQNLTIKLQLQILQQNGSSVLTAEKSKRLSTILTTMSTIYSTGKVCNPNNPQQCFTLSGLEDIMEKSKDYHQRLWVWEGWRSEVGKQLRPLYEEYVVLKNEMARGNNYEDYGDYWRGDYETEGEDGYNYSRNQLMEDVDRIFLEIKPLYEQLHAYVRAKLMNAYPSRISPTGCLPAHLLGDMWGRFWTNLYNLTVPFEQKQNIDVTETMKKQSWDAEKIFKEAEKFYLSVGLYSMTQGFWNNSMLTEPSDGRQVVCHPTAWDLGEDDFRIKMCTKVTMDDFLTAHHEMGHIQYDMAYAKQPYLLRNGANEGFHEAVGEVMSLSVATPKHLKGMGLLPSDFSEDNETEINFLLKQALNIVGTLPFTYMLEKWRWMVFEGKIPKEQWMEKWWEMKREIVGVVEPLPHDETYCDPASLFHVANDYSFIRYFTRTILEFQFQEALCKIAKHEGPLHKCDISNSTEAGKKLKDMLELGKSKPWTYALNQIARTKEMDAKPLLNYFEPLFSWLKKQNGNSVGWSADWSPYSEQSLKVRISLISALGEKAYEWNDNEMYLFRSSVAYAMRVYFSKMNKTIPFTAEDVRVSDEKKRVSFKFFVTSPTNISDIIPRSEVEDAIRMSRSRINDA
The molecule B1 displayed a dissociation constant Kd of 0.417 nM and a koff of 5.54e-05 s⁻¹.

One may read the Kd as the concentration at which binding is half-saturated. Read a high Kd as a looser complex. What is called koff is the rate constant with which the complex falls apart.

Values taken from publication PMC10272122 (2023).
